Patent US20220160767A1 (CHILDREN S NATIONAL MEDICAL CENTER, published 2022)

Target: T1, HLA-DRB1*11:01 (human, UniProt P01911 30-227; P01903 26-216)
T1 construct: whole, on cells; Class II molecule on irradiated, partially HLA-matched PHA-blasts; Only the DRB1 allele is printed; also called HLA-DR11
Assay: restriction testing: IFN-γ ELISpot of CSTs with partially HLA-matched PHA-blasts pulsed with peptide (indirect read-out)

## LRGHLRIAGHHLGRC (also called LRGHLRIAGHHLGRC) [Membrane peptide 37 (AA 145-160)]
  binding result: binds
